According to article PMC4158885 (The EMBO Journal, 2014):

How the values were obtained:
[1] = target: the molecule itself; assay: crystal structure; ctPan3 PKC bound to ctPan2 343–458, P21 symmetry, two copies of the complex in the asymmetric unit, molecular replacement
[2] = target: T1, ctPan2 Δ343–352 (PID deletion in full-length ctPan2) (Chaetomium thermophilum, UniProt G0SAK8 1-1170, Δ343–352); assay: SEC; separately purified ctPan2 constructs and ctPan3 PKC dimer mixed 1:1 at 1 μM, 15 min at room temperature; Superdex 200 Increase 3.2/300 in 20 mM Tris pH 8.0, 500 mM NaCl, 2 mM TCEP; fractions on SDS–PAGE; conditions: both partners purified
T1 sequence (looked up): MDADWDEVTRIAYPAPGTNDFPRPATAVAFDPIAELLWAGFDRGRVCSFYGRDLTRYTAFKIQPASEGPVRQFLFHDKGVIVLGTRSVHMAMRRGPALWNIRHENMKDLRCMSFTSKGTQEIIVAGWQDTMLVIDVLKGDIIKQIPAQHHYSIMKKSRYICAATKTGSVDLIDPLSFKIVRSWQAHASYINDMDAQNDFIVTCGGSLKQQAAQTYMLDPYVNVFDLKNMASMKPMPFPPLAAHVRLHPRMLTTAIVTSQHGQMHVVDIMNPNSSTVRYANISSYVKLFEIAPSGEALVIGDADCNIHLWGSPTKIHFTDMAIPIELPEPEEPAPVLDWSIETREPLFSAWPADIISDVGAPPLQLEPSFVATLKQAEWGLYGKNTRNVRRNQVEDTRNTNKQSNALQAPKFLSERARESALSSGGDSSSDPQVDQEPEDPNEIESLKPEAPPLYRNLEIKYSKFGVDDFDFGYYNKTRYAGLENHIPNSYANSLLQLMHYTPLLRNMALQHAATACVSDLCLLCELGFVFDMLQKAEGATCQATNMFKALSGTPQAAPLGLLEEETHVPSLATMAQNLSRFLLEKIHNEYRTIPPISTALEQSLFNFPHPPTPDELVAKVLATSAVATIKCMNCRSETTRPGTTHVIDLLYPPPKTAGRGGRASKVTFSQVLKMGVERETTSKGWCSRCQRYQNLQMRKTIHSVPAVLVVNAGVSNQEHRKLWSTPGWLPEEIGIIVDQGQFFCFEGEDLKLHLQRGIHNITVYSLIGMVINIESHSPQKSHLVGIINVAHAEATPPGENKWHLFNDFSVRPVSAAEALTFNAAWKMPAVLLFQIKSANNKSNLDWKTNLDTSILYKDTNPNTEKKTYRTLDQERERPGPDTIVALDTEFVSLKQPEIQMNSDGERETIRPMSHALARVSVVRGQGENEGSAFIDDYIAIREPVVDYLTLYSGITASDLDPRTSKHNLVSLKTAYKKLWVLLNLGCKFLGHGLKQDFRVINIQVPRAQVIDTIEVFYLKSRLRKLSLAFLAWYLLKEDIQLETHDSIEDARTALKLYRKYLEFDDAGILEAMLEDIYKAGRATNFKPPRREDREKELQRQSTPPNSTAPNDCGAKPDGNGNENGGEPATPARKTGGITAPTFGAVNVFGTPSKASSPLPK

[3] = target: T2, ctPan2 Δ343–375 (PID deletion in full-length ctPan2) (Chaetomium thermophilum, UniProt G0SAK8 1-1170, Δ343–375); assay: as above; conditions: both partners purified
T2 sequence (looked up): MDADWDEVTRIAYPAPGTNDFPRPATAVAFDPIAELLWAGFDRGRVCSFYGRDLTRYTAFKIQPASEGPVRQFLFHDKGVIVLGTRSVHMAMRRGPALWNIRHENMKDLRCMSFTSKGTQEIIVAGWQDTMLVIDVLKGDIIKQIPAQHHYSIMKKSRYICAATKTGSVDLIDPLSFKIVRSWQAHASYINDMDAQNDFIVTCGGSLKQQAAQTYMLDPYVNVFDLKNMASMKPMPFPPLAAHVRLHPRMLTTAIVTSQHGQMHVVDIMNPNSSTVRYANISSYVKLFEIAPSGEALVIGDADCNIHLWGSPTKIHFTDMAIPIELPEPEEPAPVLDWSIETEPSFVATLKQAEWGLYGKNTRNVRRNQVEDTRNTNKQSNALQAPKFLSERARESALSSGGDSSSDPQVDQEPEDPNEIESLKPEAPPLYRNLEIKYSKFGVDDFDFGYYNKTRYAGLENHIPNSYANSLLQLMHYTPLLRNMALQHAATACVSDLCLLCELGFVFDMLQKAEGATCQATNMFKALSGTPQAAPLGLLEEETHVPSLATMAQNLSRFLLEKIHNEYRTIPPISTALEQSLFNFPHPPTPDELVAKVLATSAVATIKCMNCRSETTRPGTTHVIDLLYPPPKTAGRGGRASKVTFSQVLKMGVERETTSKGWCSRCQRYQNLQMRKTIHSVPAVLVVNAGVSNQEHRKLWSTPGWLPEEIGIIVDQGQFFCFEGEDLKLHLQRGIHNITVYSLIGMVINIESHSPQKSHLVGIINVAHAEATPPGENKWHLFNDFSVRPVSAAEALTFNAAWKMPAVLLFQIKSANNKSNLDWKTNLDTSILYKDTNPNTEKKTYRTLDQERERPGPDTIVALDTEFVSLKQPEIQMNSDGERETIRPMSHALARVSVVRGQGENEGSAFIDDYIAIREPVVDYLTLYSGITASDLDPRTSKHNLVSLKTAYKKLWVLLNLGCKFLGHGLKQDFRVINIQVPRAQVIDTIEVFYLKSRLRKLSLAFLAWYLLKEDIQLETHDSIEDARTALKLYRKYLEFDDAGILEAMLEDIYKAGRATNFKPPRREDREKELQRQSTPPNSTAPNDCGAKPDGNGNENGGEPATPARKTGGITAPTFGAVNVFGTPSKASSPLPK

Measured: binding result

B1: ctPan3 pseudokinase/C-terminal domain (PKC, residues 205–640), purified from E. coli (domain or fragment, Chaetomium thermophilum, UniProt G0S0Y3 205-640, looked up)
chain: RQELQPWQRATYDFFMPQNLREDLQKKQFATLQVIPNSGLPQLEHWHSLVPLDTSNRKNTSCFGYPSWVYKAQNSRNGRHYALRRLEGYRLTNEKAILNVMKDWKKIKNASIVTIHEVFTTREFGDSSLIFAYDFHPLSKTLQEHHFQPIHGNRYRPPPAVPENTIWGYICQIANALKTIHSNRLAARCLEPSKIILTDINRIRLSACAILDVVQFGMNSRSVVELQQEDFVKFGKLILSLATGTLPAHLNNIPAALETLGNKYSANLKSAVNWLLDTSSGETKTIEHFMTGIASQMTTFFDLALQDNDEKLFHLAREVENGRIARSLMKLLTILERGDYDGVPSWSETGDRYQLKLFRDYVFHRVDADGKPNLSIGHMLTCMSKLEAGVDENILLTSRDNETVFVLSYRELRQMYDRAFNELVKASKTGAPGANT
notes: Pan3, Chaetomium thermophilum, pseudokinase (242-497), coiled coil (499-538) and C-terminal domain (555-640), construct residues 205-640; The crystals of ctPan3 PKC alone (PDB 4CYI) were of Se-Met-labelled protein; also called ctPan3 PKC; ctPan3 PKC dimer; source: E. coli, purified (glutathione Sepharose)
binds: all assays above
